Assay results taken from article doi:10.1101/2020.08.12.247809 (bioRxiv, 2020).

How the values were obtained:
SEC = target: the molecule itself; experiment: SEC
GST-HDAC1 = GST-HDAC1 (mouse, UniProt O09106 1-482); experiment: pull-down
GST-HDAC1, sequence (O09106 whole entry): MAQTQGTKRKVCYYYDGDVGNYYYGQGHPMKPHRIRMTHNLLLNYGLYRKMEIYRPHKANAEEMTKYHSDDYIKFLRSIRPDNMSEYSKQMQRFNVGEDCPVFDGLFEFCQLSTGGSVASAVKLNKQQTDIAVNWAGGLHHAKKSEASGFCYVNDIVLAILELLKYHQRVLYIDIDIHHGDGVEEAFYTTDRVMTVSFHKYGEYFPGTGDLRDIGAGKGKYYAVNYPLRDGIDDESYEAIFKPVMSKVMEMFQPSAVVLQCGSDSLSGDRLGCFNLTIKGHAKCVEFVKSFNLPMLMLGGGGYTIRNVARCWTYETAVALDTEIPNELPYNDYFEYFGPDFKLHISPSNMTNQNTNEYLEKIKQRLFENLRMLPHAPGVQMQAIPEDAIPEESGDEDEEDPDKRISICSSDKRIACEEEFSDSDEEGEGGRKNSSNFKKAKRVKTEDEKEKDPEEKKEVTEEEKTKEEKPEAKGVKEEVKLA

- binding result (GST-HDAC1): binds
B1: His6-KIAA1841(BTB) (domain or fragment, mouse, UniProt Q68FF0-1 144-261, looked up)
chain: GPNMVIHVCDEAKSLKEDFICPRDLLISEMKYFAEYLSMDAQRWEEVDISVHCDVHIFNWLIKYVKRNTKESKDCEIPALEPGNVISILISSEFLKMDSLVEQCIQYCHKNMNAIVAA
- stoichiometry N (SEC): 2
